# Measured values taken from paper PMC3507735, “Cloning, expression and characterization of an aryl-alcohol dehydrogenase from the white-rot fungus Phanerochaete chrysosporium strain BKM-F-1767” (BMC Microbiology, 2012).
# B1: Pc Aad1p (recombinant aryl-alcohol dehydrogenase, AAD1) (Phanerodontia chrysosporium) (protein)
# chain: MNIWAPAPEPPTKLGRHRQLAPGCGLHVSPIQLGAMSIGDKWHPYGMGTMDKEASFKLLDAFYNAGGNFIDTANVYQDETSEEFIGEWMEARGNRDQMVVATKYSLVYKRGASFEEIPQKTQYVGNSLKSMHISVHDSLRKLRTSYIDIFYVHFWDYTCTIEEVMNGLHNLVAQGKVLYLGVSDTPAWVVSKANNYARMAGKTPFVIYEGEWNITMRDMERDIIPMCIHEGMAIAPWNVLCAGKIRTDAEEERRLKSGEGGRTLLQFDGWLRNETERKVSKALEKVAEEIGAKSITSVAIAYLMQKFPYVFPIVGGRKVEHLYANLEALDISLSPEQMQFLNDTVPFNKGFPYLLFGDGSDYNIVHKAAGHYDKWPAQQAIRPQK
# notes: full-length ORF (1155 bp) in pGS-21a; N-terminal His6-GST and C-terminal His6 tags kept; E. coli BL21 Star(DE3)
# Legend:
# [1] = biological target: T1, Pc Aad1p (recombinant aryl-alcohol dehydrogenase, AAD1) (Phanerodontia chrysosporium, UniProt Q01752); assay: spectrophotometric NADPH oxidation at […] nm, fit to uncompetitive substrate inhibition equation; type: biochemical; design: full-length ORF (1155 bp) in pGS-21a; N-terminal His6-GST and C-terminal His6 tags kept; E. coli BL21 Star(DE3); details: substrate inhibition constant (uncompetitive); 0.3 mM NADPH, 50 mM MES pH 6.1, 30°C
# T1 sequence (Q01752 1-385): B1 chain
# [2] = biological target: T1, Pc Aad1p (recombinant aryl-alcohol dehydrogenase, AAD1); assay: spectrophotometric NADPH oxidation at […] nm, non-linear fit; details: read-out: KMμM; reduction; 0.3 mM NADPH, 50 mM MES pH 6.1, 30°C
# [3] = tested on: COc1ccc(C=O)cc1O; assay: purified protein; details: reduction, 0.3 mM NADPH, 50 mM MES pH 6.1, 30°C
# [4] = substrate: NC(=O)C1=CN([C@@H]2O[C@H](COP(=O)(O)OP(=O)(O)OC[C@H]3O[C@@H](n4cnc5c(N)ncnc54)[C@H](O)[C@@H]3O)[C@@H](O)[C@H]2O)C=CC1; assay: purified protein; type: biochemical, Phanerodontia chrysosporium; details: 0.2 mM 3,4-dimethoxybenzaldehyde, 50 mM MES pH 6.1, 30°C, varied: cofactor
# [5] = substrate: COc1cc(CO)ccc1O; assay: purified protein; type: biochemical, Phanerodontia chrysosporium; details: oxidation, 0.3 mM NADP+, 100 mM Glycine-KOH pH 10.3, 30°C
# [6] = substrate: COc1ccc(CO)cc1OC; assay: purified protein; type: biochemical, Phanerodontia chrysosporium; details: oxidation, 0.3 mM NADP+, 100 mM Glycine-KOH pH 10.3, 30°C
# [7] = substrate: NC(=O)C1=CN([C@@H]2O[C@H](COP(=O)(O)OP(=O)(O)OC[C@H]3O[C@@H](n4cnc5c(N)ncnc54)[C@H](OP(=O)(O)O)[C@@H]3O)[C@@H](O)[C@H]2O)C=CC1; assay: purified protein; type: biochemical, Phanerodontia chrysosporium; details: 0.2 mM 3,4-dimethoxybenzaldehyde, 50 mM MES pH 6.1, 30°C, varied: cofactor
# [8] = substrate: NC(=O)c1ccc[n+]([C@@H]2O[C@H](COP(=O)(O)OP(=O)(O)OC[C@H]3O[C@@H](n4cnc5c(N)ncnc54)[C@H](OP(=O)(O)O)[C@@H]3O)[C@@H](O)[C@H]2O)c1; assay: purified protein; type: biochemical, Phanerodontia chrysosporium; details: 10 mM 3,4-dimethoxybenzyl alcohol, 100 mM Glycine-KOH pH 10.3, 30°C, varied: cofactor
# [9] = substrate: O=Cc1ccccc1; assay: purified protein; details: reduction, 0.3 mM NADPH, 50 mM MES pH 6.1, 30°C
# [10] = substrate: COc1cc(C=O)cc(OC)c1; assay: purified protein; details: reduction, 0.3 mM NADPH, 50 mM MES pH 6.1, 30°C
# [11] = substrate: COc1ccc(C=O)cc1OC; assay: purified protein; details: reduction, 0.3 mM NADPH, 50 mM MES pH 6.1, 30°C
# [12] = substrate: O=Cc1ccc(CO)o1; assay: purified protein; details: reduction, 0.3 mM NADPH, 50 mM MES pH 6.1, 30°C
# [13] = substrate: O=CCc1ccccc1; assay: purified protein; details: reduction, 0.3 mM NADPH, 50 mM MES pH 6.1, 30°C
# [14] = substrate: COc1cc(C=O)ccc1O; assay: purified protein; details: reduction, 0.3 mM NADPH, 50 mM MES pH 6.1, 30°C
molecule,measurement,setting,value
"COc1ccc(C=O)cc1OC [3,4-Dimethoxybenzaldehyde]",KiμM,[1],3400 ± 1100 µM
O=C/C=C/c1ccccc1 [trans-Cinnamaldehyde],KiμM,[1],3500 ± 1600 µM
same,Km,[2],3400 ± 1300 µM
O=Cc1ccccc1 [Benzaldehyde],KiμM,[1],81000 ± 44000 µM
COc1cc(C=O)ccc1O [4-Hydroxy-3-methoxybenzaldehyde],KiμM,[1],5100 ± 2300 µM
"COc1cc(C=O)cc(OC)c1 [3,5-Dimethoxybenzaldehyde]",KiμM,[1],2100 ± 600 µM
COc1ccc(C=O)cc1O [3-Hydroxy-4-methoxybenzaldehyde],KiμM,[1],2300 ± 1800 µM
COc1ccc(C=O)cc1 [4-Methoxybenzaldehyde],Km,[2],90 ± 10 µM
"Pc Aad1p (recombinant aryl-alcohol dehydrogenase, AAD1) (Phanerodontia chrysosporium)",Km,[3],1400 ± 900 µM
same,kcat,[3],3.83 ± 1.83 s⁻¹
same,kcat/Km,[3],2670 M⁻¹ s⁻¹
B1,Km,[4],220 ± 130 µM
same,kcat,[4],2 ± 0.667 s⁻¹
same,kcat/Km,[4],10000 M⁻¹ s⁻¹
same,Km,[5],25000 ± 7000 µM
same,kcat,[5],4.33 ± 1 s⁻¹
same,kcat/Km,[5],167 M⁻¹ s⁻¹
same,Km,[6],370 ± 50 µM
same,kcat,[6],2.55 ± 0.1 s⁻¹
same,kcat/Km,[6],6830 M⁻¹ s⁻¹
same,Km,[7],39 ± 5 µM
same,kcat,[7],11.3 ± 0.5 s⁻¹
same,kcat/Km,[7],283000 M⁻¹ s⁻¹
same,Km,[8],38 ± 7 µM
same,kcat,[8],2.57 ± 0.12 s⁻¹
same,kcat/Km,[8],68300 M⁻¹ s⁻¹
same,Km,[9],1700 ± 600 µM
same,kcat,[9],7.17 ± 0.833 s⁻¹
same,kcat/Km,[9],5000 M⁻¹ s⁻¹
same,Km,[10],22 ± 4 µM
same,kcat,[10],9.83 ± 0.5 s⁻¹
same,kcat/Km,[10],450000 M⁻¹ s⁻¹
same,Km,[11],12 ± 2 µM
same,kcat,[11],8.83 ± 0.417 s⁻¹
same,kcat/Km,[11],733000 M⁻¹ s⁻¹
same,Km,[12],270 ± 40 µM
same,kcat,[12],2.93 ± 0.1 s⁻¹
same,kcat/Km,[12],10800 M⁻¹ s⁻¹
same,Km,[13],530 ± 90 µM
same,kcat,[13],11.2 ± 0.417 s⁻¹
same,kcat/Km,[13],21700 M⁻¹ s⁻¹
same,Km,[14],1400 ± 600 µM
same,kcat,[14],3.33 ± 0.833 s⁻¹
same,kcat/Km,[14],2330 M⁻¹ s⁻¹
